Measurements as given in patent US20170160291.

Molecular target: immature human CFD (proCFD)

B1: recombinant protease MASP1 (protein)
chain: HTVELNNMFGQIQSPGYPDSYPSDSEVTWNITVPDGFRIKLYFMHFNLESSYLCEYDYVKVETEDQVLATFCGRETTDTEQTPGQEVVLSPGSFMSITFRSDFSNEERFTGFDAHYMAVDVDECKEREDEELSCDHYCHNYIGGYYCSCRFGYILHTDNRTCRVECSDNLFTQRTGVITSPDFPNPYPKSSECLYTIELEEGFMVNLQFEDIFDIEDHPEVPCPYDYIKIKVGPKVLGPFCGEKAPEPISTQSHSVLILFHSDNSGENRGWRLSYRAAGNECPELQPPVHGKIEPSQAKYFFKDQVLVSCDTGYKVLKDNVEMDTFQIECLKDGTWSNKIPTCKIVDCRAPGELEHGLITFSTRNNLTTYKSEIKYSCQEPYYKMLNNNTGIYTCSAQGVWMNKVLGRSLPTCLPVCGLPKFSRKLMARIFNGRPAQKGTTPWIAMLSHLNGQPFCGGSLLGSSWIVTAAHCLHQSLDPEDPTLRDSDLLSPSDFKIILGKHWRLRSDENEQHLGVKHTTLHPQYDPNTFENDVALVELLESPVLNAFVMPICLPEGPQQEGAMVIVSGWGKQFLQRFPETLMEIEIPIVDHSTCQKAYAPLKKKVTRDMICAGEKEGGKDACAGDSGGPMVTLNRERGQWYLVGTVSWGDDCGKKDRYGVYSYIHHNKDWIQRVTGVRN
processing of proCFD (IEF immunoblot after overnight incubation at 37 C): ProCFD treated with MASP1 was not strongly processed (lane 1)

B2: recombinant protease MASP3 (protein)
chain: HTVELNNMFGQIQSPGYPDSYPSDSEVTWNITVPDGFRIKLYFMHFNLESSYLCEYDYVKVETEDQVLATFCGRETTDTEQTPGQEVVLSPGSFMSITFRSDFSNEERFTGFDAHYMAVDVDECKEREDEELSCDHYCHNYIGGYYCSCRFGYILHTDNRTCRVECSDNLFTQRTGVITSPDFPNPYPKSSECLYTIELEEGFMVNLQFEDIFDIEDHPEVPCPYDYIKIKVGPKVLGPFCGEKAPEPISTQSHSVLILFHSDNSGENRGWRLSYRAAGNECPELQPPVHGKIEPSQAKYFFKDQVLVSCDTGYKVLKDNVEMDTFQIECLKDGTWSNKIPTCKIVDCRAPGELEHGLITFSTRNNLTTYKSEIKYSCQEPYYKMLNNNTGIYTCSAQGVWMNKVLGRSLPTCLPECGQPSRSLPSLVKRIIGGRNAEPGLFPWQALIVVEDTSRVPNDKWFGSGALLSASWILTAAHVLRSQRRDTTVIPVSKEHVTVYLGLHDVRDKSGAVNSSAARVVLHPDFNIQNYNHDIALVQLQEPVPLGPHVMPVCLPRLEPEGPAPHMLGLVAGWGISNPNVTVDEIISSGTRTLSDVLQYVKLPVVPHAECKTSYESRSGNYSVTENMFCAGYYEGGKDTCLGDSGGAFVIFDDLSQRWVVQGLVSWGGPEECGSKQVYGVYTKVSNYVDWVWEQMGLPQSVVEPQVER
degree of processing of the proCFD N terminus (targeted mass spectrometry, convertase activity test): Only the proteases from the MASP family, i.e. L. MASP3 show a successful activation of proCFD | processing of proCFD (IEF immunoblot after overnight incubation at 37 C): proCFD treated with MASP3 was almost completely converted into active CFD and even shows further processed forms (lane 2)

B3: recombinant protease C1R (protein)
chain: SIPIPQKLFGEVTSPLFPKPYPNNFETTTVITVPTGYRVKLVFQQFDLEPSEGCFYDYVKISADKKSLGRFCGQLGSPLGNPPGKKEFMSQGNKMLLTFHTDFSNEENGTIMFYKGFLAYYQAVDLDECASRSKSGEEDPQPQCQHLCHNYVGGYFCSCRPGYELQEDTHSCQAECSSELYTEASGYISSLEYPRSYPPDLRCNYSIRVERGLTLHLKFLEPFDIDDHQQVHCPYDQLQIYANGKNIGEFCGKQRPPDLDTSSNAVDLLFFTDESGDSRGWKLRYTTEIIKCPQPKTLDEFTIIQNLQPQYQFRDYFIATCKQGYQLIEGNQVLHSFTAVCQDDGTWHRAMPRCKIKDCGQPRNLPNGDFRYTTTMGVNTYKARIQYYCHEPYYKMQTRAGSRESEQGVYTCTAQGIWKNEQKGEKIPRCLPVCGKPVNPVEQRQRIIGGQKAKMGNFPWQVFTNIHGRGGGALLGDRWILTAAHTLYPKEHEAQSNASLDVFLGHTNVEELMKLGNHPIRRVSVHPDYRQDESYNFEGDIALLELENSVTLGPNLLPICLPDNDTFYDLGLMGYVSGFGVMEEKIAHDLRFVRLPVANPQACENWLRGKNRMDVFSQNMFCAGHPSLKQDACQGDSGGVFAVRDPNTDRWVATGIVSWGIGCSRGYGFYTKVLNYVDWIKKEMEEED
processing of proCFD (IEF immunoblot after overnight incubation at 37 C): The treatment with C1R resulted in a partial processing/activation (lane 3)

B4: recombinant protease C1S (protein)
chain: EPTMYGEILSPNYPQAYPSEVEKSWDIEVPEGYGIHLYFTHLDIELSENCAYDSVQIISGDTEEGRLCGQRSSNNPHSPIVEEFQVPYNKLQVIFKSDFSNEERFTGFAAYYVATDINECTDFVDVPCSHFCNNFIGGYFCSCPPEYFLHDDMKNCGVNCSGDVFTALIGEIASPNYPKPYPENSRCEYQIRLEKGFQVVVTLRREDFDVEAADSAGNCLDSLVFVAGDRQFGPYCGHGFPGPLNIETKSNALDIIFQTDLTGQKKGWKLRYHGDPMPCPKEDTPNSVWEPAKAKYVFRDVVQITCLDGFEVVEGRVGATSFYSTCQSNGKWSNSKLKCQPVDCGIPESIENGKVEDPESTLFGSVIRYTCEEPYYYMENGGGGEYHCAGNGSWVNEVLGPELPKCVPVCGVPREPFEEKQRIIGGSDADIKNFPWQVFFDNPWAGGALINEYWVLTAAHVVEGNREPTMYVGSTSVQTSRLAKSKMLTPEHVFIHPGWKLLEVPEGRTNFDNDIALVRLKDPVKMGPTVSPICLPGTSSDYNLMDGDLGLISGWGRTEKRDRAVRLKAARLPVAPLRKCKEVKVEKPTADAEAYVFTPNMICAGGEKGMDSCKGDSGGAFAVQDPNDKTKFYAAGLVSWGPQCGTYGLYTRVKNYVDWIMKTMQENSTPRED
processing of proCFD (IEF immunoblot after overnight incubation at 37 C): the convertase C1S hardly shows effects (lane 4, like MASP1)
